No end group written: not given here.
B3: UBXD1-wt (1-441) (natural protein, human, UniProt Q9BZV1 1-441, looked up)
chain: MKKFFQEFKADIKFKSAGPGQKLKESVGEKAHKEKPNQPAPRPPRQGPTNEAQMAAAAALARLEQKQSRAWGPTSQDTIRNQVRKELQAEATVSGSPEAPGTNVVSEPREEGSAHLAVPGVYFTCPLTGATLRKDQRDACIKEAILLHFSTDPVAASIMKIYTFNKDQDRVKLGVDTIAKYLDNIHLHPEEEKYRKIKLQNKVFQERINCLEGTHEFFEAIGFQKVLLPAQDQEDPEEFYVLSETTLAQPQSLERHKEQLLAAEPVRAKLDRQRRVFQPSPLASQFELPGDFFNLTAEEIKREQRLRSEAVERLSVLRTKAMREKEEQRGLRKYNYTLLRVRLPDGCLLQGTFYARERLGAVYGFVREALQSDWLPFELLASGGQKLSEDENLALNECGLVPSALLTFSWDMAVLEDIKAAGAEPDSILKPELLSAIEKLL
notes: also called UBXD1-fl; UBXN6; not shown: GST, N-terminal, cleaved

Experiments:
Conditions in all cases: both partners purified
p97-N (1–199) = biological target: T1, p97-N (1–199) (UniProt P55072 1-199); test: fluorescence polarisation; fluorescence anisotropy; Atto594-labeled UBXD1 proteins, p97 constructs titrated; 50 mM NaKPi pH 7.5, 25 °C; all fitted with stoichiometry n = 1
T1 construct: p97/VCP, N-domain, residues 1-199; also called N-domain of p97; source: E. coli BL21 DE3 (T1r) (pET28a), purified

UBXD1-PUB (150-264) = biological target: T2, UBXD1-PUB (150-264) (human, UniProt Q9BZV1 150-264); test: NMR titration; 1H-15N-HSQC of 15N-HR23b-UBL (200 µM), UBXD1-PUB added stepwise to 400 µM; 50 mM sodium potassium phosphate, pH 7.5, 25 °C
T2 construct: UBXD1 (UBXN6), human, PUB domain, residues 150-264; also called His6-UBXD1-PUB; source: E. coli Rosetta2, purified (Ni-NTA, thrombin cleavage, SEC); unlabelled or 15N-labelled; not shown: His6, N-terminal, cleaved
T2 sequence (looked up): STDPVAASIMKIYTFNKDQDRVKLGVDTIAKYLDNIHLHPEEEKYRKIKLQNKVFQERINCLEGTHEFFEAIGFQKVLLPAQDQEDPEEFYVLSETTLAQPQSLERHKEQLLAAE

p97 wild type (1-806) [1] = biological target: T3, p97 wild type (1-806) (UniProt P55072 1-806); test: fluorescence polarisation; displacement titration: UBXD1 incubated with 0.1 µM 5,6-FAM-p97-C10 peptide to 50% saturation, concentration of p97 successively increased; competitive binding model; 50 mM NaKPi buffer, pH 7.5, 25 °C
T3 construct: p97/VCP, residues 1-806; also called p97-wt; p97-fl; source: E. coli BL21 DE3 (T1r), purified (Ni-NTA, anion exchange)

Ubiquitin-GST = biological target: T4, Ubiquitin-GST (UniProt P0CG48 1-76); test: pull-down; screening pulldown: 25 µM Ubiquitin-GST, 1 µM p97 (hexamer) and UBXD1 variant with GSH beads, 30 min, 4 °C, IP buffer; Coomassie stain
T4 construct: ubiquitin fused at its C-terminus to GST; also called Ub-GST; source: E. coli BL21 DE3 (T1r), purified; not shown: GST, C-terminal, kept

p97-ΔC (1–766) = biological target: T5, p97-ΔC (1–766) (UniProt P55072 1-766); test: fluorescence polarisation; fluorescence anisotropy; Atto594-labeled UBXD1 proteins, p97 constructs titrated; 50 mM NaKPi pH 7.5, 25 °C; all fitted with stoichiometry n = 1
T5 construct: p97/VCP, residues 1-766; source: E. coli BL21 DE3 (T1r), purified (Ni-NTA, anion exchange)

p97-ΔD2-C (1–480) = biological target: T6, p97-ΔD2-C (1–480) (UniProt P55072 1-480); test: as above
T6 construct: p97/VCP, residues 1-480; The pull-down methods give the concentration of the p97 variant as hexamer; also called ND1L; source: E. coli BL21 DE3 (T1r), purified (Ni-NTA, anion exchange)

p97-wt (1–806) = biological target: T7, p97-wt (1–806) (UniProt P55072 1-806); test: as above
T7 construct: p97/VCP, residues 1-806; also called VCP; p97-fl; source: E. coli BL21 DE3 (T1r), purified (Ni-NTA, anion exchange)

[2] = biological target: T8, ubiquitin-GST fusion protein (Ub-GST) (UniProt P0CG48 1-76); test: pull-down; 50 μM ubiquitin-GST, 2.5 μM p97 (hexamer) and 5 μM UBXD1 variant with GSH beads, 30 min, 4 °C, 50 mM Tris pH 7.4, 150 mM KCl, 1% Triton-X-100
T8 construct: source: E. coli BL21 DE3 (T1r), purified

UBXD1-wt (1-441) = biological target: B3; test: fluorescence polarisation; displacement titration: UBXD1 incubated with 0.1 µM 5,6-FAM-p97-C10 peptide to 50% saturation, concentration of p97 successively increased; competitive binding model; 50 mM NaKPi buffer, pH 7.5, 25 °C
p97 wild type (1-806) [3] = biological target: T3, p97 wild type (1-806); test: fluorescence polarisation; fluorescence anisotropy titration of Atto594-labelled UBXD1 construct with p97 construct; 50 mM NaKPi buffer, pH 7.5, 25 °C; fitted with the stoichiometry 1:1

T5 sequence (P55072 1-766, stated change not applied): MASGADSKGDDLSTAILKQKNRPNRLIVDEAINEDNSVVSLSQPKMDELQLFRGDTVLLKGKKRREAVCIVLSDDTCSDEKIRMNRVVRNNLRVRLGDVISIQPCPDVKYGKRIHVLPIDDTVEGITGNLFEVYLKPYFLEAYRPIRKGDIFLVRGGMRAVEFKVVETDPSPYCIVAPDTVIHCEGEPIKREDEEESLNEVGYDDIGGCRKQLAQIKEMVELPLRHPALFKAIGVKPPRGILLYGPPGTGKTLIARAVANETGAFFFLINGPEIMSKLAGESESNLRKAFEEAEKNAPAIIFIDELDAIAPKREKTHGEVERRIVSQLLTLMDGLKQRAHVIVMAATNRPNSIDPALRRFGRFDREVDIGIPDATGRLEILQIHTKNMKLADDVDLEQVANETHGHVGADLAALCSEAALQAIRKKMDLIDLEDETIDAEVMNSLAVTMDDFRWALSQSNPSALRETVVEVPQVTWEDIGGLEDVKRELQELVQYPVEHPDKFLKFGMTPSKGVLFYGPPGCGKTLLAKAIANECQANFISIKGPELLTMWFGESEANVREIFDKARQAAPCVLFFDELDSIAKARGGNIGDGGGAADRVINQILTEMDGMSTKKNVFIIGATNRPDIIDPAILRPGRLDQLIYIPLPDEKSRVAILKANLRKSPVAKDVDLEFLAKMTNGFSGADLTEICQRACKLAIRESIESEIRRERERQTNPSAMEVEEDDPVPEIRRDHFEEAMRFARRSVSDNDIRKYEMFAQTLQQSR
T7 sequence (P55072 whole entry, the tested form may be a part): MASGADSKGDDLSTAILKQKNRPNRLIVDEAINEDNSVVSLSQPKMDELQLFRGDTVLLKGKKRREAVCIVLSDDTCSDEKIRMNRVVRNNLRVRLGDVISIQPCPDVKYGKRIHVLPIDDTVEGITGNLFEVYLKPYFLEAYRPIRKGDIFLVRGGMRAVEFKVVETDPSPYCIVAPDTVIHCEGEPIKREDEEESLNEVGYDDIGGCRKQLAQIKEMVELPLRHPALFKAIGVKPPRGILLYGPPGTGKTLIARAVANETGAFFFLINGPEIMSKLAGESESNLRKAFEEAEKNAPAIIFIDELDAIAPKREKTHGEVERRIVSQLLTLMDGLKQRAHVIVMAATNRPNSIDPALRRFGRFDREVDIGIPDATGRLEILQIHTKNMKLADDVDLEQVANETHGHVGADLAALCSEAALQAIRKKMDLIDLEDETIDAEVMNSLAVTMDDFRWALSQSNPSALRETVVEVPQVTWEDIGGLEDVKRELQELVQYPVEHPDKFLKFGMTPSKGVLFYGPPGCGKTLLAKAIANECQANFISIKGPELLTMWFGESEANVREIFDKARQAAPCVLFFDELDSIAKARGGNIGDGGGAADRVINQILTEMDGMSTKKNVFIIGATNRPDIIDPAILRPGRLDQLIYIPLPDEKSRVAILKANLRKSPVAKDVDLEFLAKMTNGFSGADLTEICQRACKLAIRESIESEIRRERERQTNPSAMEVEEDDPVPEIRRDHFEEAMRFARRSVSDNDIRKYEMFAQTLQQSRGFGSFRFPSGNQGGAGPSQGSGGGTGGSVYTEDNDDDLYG
T3 sequence (P55072 whole entry, the tested form may be a part): as above
T6 sequence (P55072 1-480, stated change not applied): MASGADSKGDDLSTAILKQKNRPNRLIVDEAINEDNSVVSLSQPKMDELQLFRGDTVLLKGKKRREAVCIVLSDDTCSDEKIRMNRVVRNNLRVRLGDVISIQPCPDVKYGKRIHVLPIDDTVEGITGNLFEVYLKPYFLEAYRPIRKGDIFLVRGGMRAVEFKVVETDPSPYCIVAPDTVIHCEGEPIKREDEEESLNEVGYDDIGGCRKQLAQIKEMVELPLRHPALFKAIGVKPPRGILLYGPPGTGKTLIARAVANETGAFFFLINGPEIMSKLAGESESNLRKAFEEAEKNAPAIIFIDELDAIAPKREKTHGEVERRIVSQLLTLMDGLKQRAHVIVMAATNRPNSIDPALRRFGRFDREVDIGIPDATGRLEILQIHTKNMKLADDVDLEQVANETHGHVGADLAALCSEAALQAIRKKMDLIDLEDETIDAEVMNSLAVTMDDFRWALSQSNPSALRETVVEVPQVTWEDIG
T1 sequence (P55072 1-199): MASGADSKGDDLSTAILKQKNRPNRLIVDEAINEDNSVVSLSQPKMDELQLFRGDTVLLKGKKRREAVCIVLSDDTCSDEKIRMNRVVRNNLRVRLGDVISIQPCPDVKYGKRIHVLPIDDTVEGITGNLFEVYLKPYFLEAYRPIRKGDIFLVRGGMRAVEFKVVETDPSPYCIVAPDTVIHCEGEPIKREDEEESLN

B1: UBXD1-N (1–133) (domain or fragment, human, UniProt Q9BZV1 1-133, looked up)
chain: MKKFFQEFKADIKFKSAGPGQKLKESVGEKAHKEKPNQPAPRPPRQGPTNEAQMAAAAALARLEQKQSRAWGPTSQDTIRNQVRKELQAEATVSGSPEAPGTNVVSEPREEGSAHLAVPGVYFTCPLTGATLR
modifications: Atto594 (NHS ester; the UBXD1 proteins were labeled for anisotropy)
notes: UBXD1 (UBXN6), human, N-terminus, residues 1-133; The construct is not described on its own in the methods; limits from the results; also called UBXD1 N-terminus; not shown: GST, N-terminal, cleaved
Kd (p97-N (1–199)): 22 ± 1 µM

B2: HR23b-UBL (1-78) (domain or fragment)
chain: not shown
notes: also called HR23b-UBL wt; 15N-HR23b-UBL; source: unlabelled or 15N-labelled; not shown: GST, N-terminal, cleaved
binding result (UBXD1-PUB (150-264)): binds

B3
Kd (p97 wild type (1-806) [1]): 1.1 ± 0.1 µM

B4: UBXD1-His E368A/D373A (natural protein, human, UniProt Q9BZV1 1-441, looked up)
chain: MKKFFQEFKADIKFKSAGPGQKLKESVGEKAHKEKPNQPAPRPPRQGPTNEAQMAAAAALARLEQKQSRAWGPTSQDTIRNQVRKELQAEATVSGSPEAPGTNVVSEPREEGSAHLAVPGVYFTCPLTGATLRKDQRDACIKEAILLHFSTDPVAASIMKIYTFNKDQDRVKLGVDTIAKYLDNIHLHPEEEKYRKIKLQNKVFQERINCLEGTHEFFEAIGFQKVLLPAQDQEDPEEFYVLSETTLAQPQSLERHKEQLLAAEPVRAKLDRQRRVFQPSPLASQFELPGDFFNLTAEEIKREQRLRSEAVERLSVLRTKAMREKEEQRGLRKYNYTLLRVRLPDGCLLQGTFYARERLGAVYGFVRAALQSAWLPFELLASGGQKLSEDENLALNECGLVPSALLTFSWDMAVLEDIKAAGAEPDSILKPELLSAIEKLL
notes: the mutant's name is printed in four ways; not shown: GST, N-terminal, cleaved
binding result (Ubiquitin-GST): binds

B5: UBXD1-VIMx (1–441, DI11/12AA, RL62/63AA) (natural protein, human, UniProt Q9BZV1 1-441, looked up)
chain: MKKFFQEFKAAAKFKSAGPGQKLKESVGEKAHKEKPNQPAPRPPRQGPTNEAQMAAAAALAAAEQKQSRAWGPTSQDTIRNQVRKELQAEATVSGSPEAPGTNVVSEPREEGSAHLAVPGVYFTCPLTGATLRKDQRDACIKEAILLHFSTDPVAASIMKIYTFNKDQDRVKLGVDTIAKYLDNIHLHPEEEKYRKIKLQNKVFQERINCLEGTHEFFEAIGFQKVLLPAQDQEDPEEFYVLSETTLAQPQSLERHKEQLLAAEPVRAKLDRQRRVFQPSPLASQFELPGDFFNLTAEEIKREQRLRSEAVERLSVLRTKAMREKEEQRGLRKYNYTLLRVRLPDGCLLQGTFYARERLGAVYGFVREALQSDWLPFELLASGGQKLSEDENLALNECGLVPSALLTFSWDMAVLEDIKAAGAEPDSILKPELLSAIEKLL
modifications: Atto594 (NHS ester; the UBXD1 proteins were labeled for anisotropy)
notes: also called UBXD1-VIMx mutant; not shown: GST, N-terminal, cleaved
Kd (p97-ΔC (1–766)): 87 ± 1 µM
Kd (p97-ΔD2-C (1–480)): 466 ± 9 µM

B6: UBXD1-wt (1–441), Atto594-labeled for fluorescence anisotropy with p97 (natural protein, human, UniProt Q9BZV1 1-441, looked up)
chain: MKKFFQEFKADIKFKSAGPGQKLKESVGEKAHKEKPNQPAPRPPRQGPTNEAQMAAAAALARLEQKQSRAWGPTSQDTIRNQVRKELQAEATVSGSPEAPGTNVVSEPREEGSAHLAVPGVYFTCPLTGATLRKDQRDACIKEAILLHFSTDPVAASIMKIYTFNKDQDRVKLGVDTIAKYLDNIHLHPEEEKYRKIKLQNKVFQERINCLEGTHEFFEAIGFQKVLLPAQDQEDPEEFYVLSETTLAQPQSLERHKEQLLAAEPVRAKLDRQRRVFQPSPLASQFELPGDFFNLTAEEIKREQRLRSEAVERLSVLRTKAMREKEEQRGLRKYNYTLLRVRLPDGCLLQGTFYARERLGAVYGFVREALQSDWLPFELLASGGQKLSEDENLALNECGLVPSALLTFSWDMAVLEDIKAAGAEPDSILKPELLSAIEKLL
modifications: Atto594 (NHS ester, ratio 1:1.2)
notes: not shown: GST, N-terminal, cleaved
Kd (p97-wt (1–806)): 1.64 µM
Kd (p97-ΔC (1–766)): 11.9 ± 0.2 µM

B7: UBXD1 E368A/D373A (full length, recombinant) (natural protein, human, UniProt Q9BZV1 1-441, looked up)
chain: MKKFFQEFKADIKFKSAGPGQKLKESVGEKAHKEKPNQPAPRPPRQGPTNEAQMAAAAALARLEQKQSRAWGPTSQDTIRNQVRKELQAEATVSGSPEAPGTNVVSEPREEGSAHLAVPGVYFTCPLTGATLRKDQRDACIKEAILLHFSTDPVAASIMKIYTFNKDQDRVKLGVDTIAKYLDNIHLHPEEEKYRKIKLQNKVFQERINCLEGTHEFFEAIGFQKVLLPAQDQEDPEEFYVLSETTLAQPQSLERHKEQLLAAEPVRAKLDRQRRVFQPSPLASQFELPGDFFNLTAEEIKREQRLRSEAVERLSVLRTKAMREKEEQRGLRKYNYTLLRVRLPDGCLLQGTFYARERLGAVYGFVRAALQSAWLPFELLASGGQKLSEDENLALNECGLVPSALLTFSWDMAVLEDIKAAGAEPDSILKPELLSAIEKLL
notes: UBXD1 (UBXN6), human, mutant in the context of recombinant UBXD1-fl
binding result [2]: binds

B8: 5,6-FAM-p97-C10 peptide (peptide)
peptide: {5,6‑FAM}-TEDNDDDLYG
notes: p97/VCP C-terminal residues 797-806
binding result (UBXD1-wt (1-441)): binds

B9: UBXD1-ΔUBX-C (1-332), Atto594-labelled (domain or fragment, human, UniProt Q9BZV1 1-332, looked up)
chain: MKKFFQEFKADIKFKSAGPGQKLKESVGEKAHKEKPNQPAPRPPRQGPTNEAQMAAAAALARLEQKQSRAWGPTSQDTIRNQVRKELQAEATVSGSPEAPGTNVVSEPREEGSAHLAVPGVYFTCPLTGATLRKDQRDACIKEAILLHFSTDPVAASIMKIYTFNKDQDRVKLGVDTIAKYLDNIHLHPEEEKYRKIKLQNKVFQERINCLEGTHEFFEAIGFQKVLLPAQDQEDPEEFYVLSETTLAQPQSLERHKEQLLAAEPVRAKLDRQRRVFQPSPLASQFELPGDFFNLTAEEIKREQRLRSEAVERLSVLRTKAMREKEEQRGLR
modifications: Atto594 (NHS ester labelling)
notes: the methods say that the UBXD1 proteins were labelled with Atto594-NHS ester for anisotropy; not shown: GST, N-terminal, cleaved
Kd (p97 wild type (1-806) [3]): 5.5 ± 0.2 µM

B10: UBXD1-ΔUBX-C (1–332), recombinant, for fluorescence anisotropy (domain or fragment, human, UniProt Q9BZV1 1-332, looked up)
chain: MKKFFQEFKADIKFKSAGPGQKLKESVGEKAHKEKPNQPAPRPPRQGPTNEAQMAAAAALARLEQKQSRAWGPTSQDTIRNQVRKELQAEATVSGSPEAPGTNVVSEPREEGSAHLAVPGVYFTCPLTGATLRKDQRDACIKEAILLHFSTDPVAASIMKIYTFNKDQDRVKLGVDTIAKYLDNIHLHPEEEKYRKIKLQNKVFQERINCLEGTHEFFEAIGFQKVLLPAQDQEDPEEFYVLSETTLAQPQSLERHKEQLLAAEPVRAKLDRQRRVFQPSPLASQFELPGDFFNLTAEEIKREQRLRSEAVERLSVLRTKAMREKEEQRGLR
modifications: Atto594 (NHS ester; the UBXD1 proteins were labeled for anisotropy)
notes: also called UBX deletion mutant of UBXD1; not shown: GST, N-terminal, cleaved
Kd (p97-ΔC (1–766)): 18.6 ± 0.7 µM
Kd (p97-ΔD2-C (1–480)): 26 ± 2 µM

B11: UBXD1-eUBX-C (269–441), for fluorescence anisotropy (domain or fragment, human, UniProt Q9BZV1 269-441, looked up)
chain: KLDRQRRVFQPSPLASQFELPGDFFNLTAEEIKREQRLRSEAVERLSVLRTKAMREKEEQRGLRKYNYTLLRVRLPDGCLLQGTFYARERLGAVYGFVREALQSDWLPFELLASGGQKLSEDENLALNECGLVPSALLTFSWDMAVLEDIKAAGAEPDSILKPELLSAIEKLL
modifications: Atto594 (NHS ester; the UBXD1 proteins were labeled for anisotropy)
notes: also called eUBX-C domain; not shown: GST, N-terminal, cleaved
Kd (p97-wt (1–806)): 131 ± 14 µM

From article PMC10241913 (Nature Communications, 2023)
